Biological target: T1, human ADP-ribosyl cyclase 2 (BST1; CD157) (human, UniProt Q10588 33-293)
T1 construct: Endogenous BST1 on human cells (A549, H226, U937, AML blasts); also called Bone marrow stromal antigen 1; cell-surface human BST1
T1 sequence: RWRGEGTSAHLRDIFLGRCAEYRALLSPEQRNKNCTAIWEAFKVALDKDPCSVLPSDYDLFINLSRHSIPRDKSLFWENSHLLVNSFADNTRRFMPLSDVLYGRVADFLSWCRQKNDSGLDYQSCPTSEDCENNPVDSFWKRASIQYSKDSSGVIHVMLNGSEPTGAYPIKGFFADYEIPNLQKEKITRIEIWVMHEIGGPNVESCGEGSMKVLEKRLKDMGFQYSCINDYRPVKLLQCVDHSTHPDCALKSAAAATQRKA
Assay: flow cytometry on A549 and H226 cells
Protocol: The specificity of antibodies against the BST1 selected in Example 2 was tested by flow cytometry. To test the ability of the antibodies to bind to the cell surface BST1 protein, the antibodies were incubated with the BST1-expressing cells, A549 and H226, from human lung adenocarcinoma and human lung squamous carcinoma, respectively. Cells were washed in FACS buffer (DPBS, 2% FBS), centrifuged and resuspended in […] of the diluted primary BST1 antibody (also diluted in FACS buffer). The antibody-A549 complex was incubated on ice for 60 min and then washed twice with FACS buffer as described above. The cell-antibody pellet was resuspended in 100 μl of the diluted secondary antibody (also diluted in FACS buffer) and incubated on ice for 60 min on ice. The pellet was washed as before and resuspended in […] FACS buffer. The samples were loaded onto the BD FACScanto II flow sytometer and the data analyzed using the BD FACSdiva software.

- binding result: binds
B1: BST1_A3 (Fab, V domains shown)
VH: QVQLQQSRAELVMPGASVKMSCKTSGYTFSDYWVHWVRQRPGQGLEWIGAIDGSDTFNDYSQKFKGRATLTVDESSSTVYMQLSSLTSEDSAVYYCARGGLLQYWGQGTTLTVSS
VL: DIQLTQSPASLSASVGETVTITCRASENIYSYLAWYQQKQGKSPQLLVYNTKTLGEGVPSRFSGSGSGTQFSLKINSLQPEDFGSYYCQHHYGTPFTFGSGTKLEIKR

From patent US20130273068A1 (published 2013)
